The DeepSol protein solubility set

Test: soluble on expression in E. coli; label from the status in PepcDB or PDB records

Soluble on expression in E. coli, not soluble:
MGSDKIHHHHHHMSTPLSHATLEQLFLNARTHSHWQPRPVSDELLHQLHELLKQAPTSANCSPARFVFVKSEAAKAKLKPCLAAGNVDKTMAAPVCVIVAHDTRFYEHLPQLFPHADAKSWFEGNQPLIDTTAFRNGTLQGAYLILAARSLGLDCGPMSGFDNAAVDAAFFPDGRVKSNFLINLGYGEADKLFPRSPRFGFDEACQIL
MGSDKIHHHHHHMSTPVLNLDPDTLLMSSKDARAAAAPYAAEYQGRGPFNYGGYDNFLNPEILERVREELKQLPEAANSYDRPQERLKTSYVPERLPMYTRQLFYALNSRPMLAFIEELTGIKGLIPDPYFAGGGVHVVANGGHLDIHADFNHHAGLNLERRVNLLIYLNKDWREEYGGSFEVWDENMAGKLASYVPLFNRMCMFSTSSESWHGNPEPVNHPDGEPRMSIALYYYTATWDSTRKSHTTLFKPRPGTKDQRDRQVARRELLQDLLPPVLHRKLAWRLEKLGF
MGSDKIHHHHHHMSTTMQVIELNGPNRLSISQRQVPETPVDGVLLKTSAVSICSTDISHYHGNLLAEDYPVILGHEYSGIVVDVGPECPSSLQGQRLAYFGQTDFGGMAEYRALRPLFAGDLRSSPFKTGRFFKDDERAAAITLPDEISDSDAPLIEPITAVLRSILTHPPAVGNRVLVLGGGPCGAIAGAILQTLYATKSVAVLERNQARQEIARSQYANFVFGSAEELRESDDDAFDYVFDALPPLVNIEADSCPRRAAMRAAKPGSKYVLYGASQTLQQFDTWLLLAKGITLASAAFDVDHFPMYKTAFVMKTAKELLLRRIIDPGWMMTNHMSFWRPQEVIQFFAEYYTTPHLKTVIHFDQ
MGSDKIHHHHHHMSTYKINNEQLTLIKEMPFKLEKEIQNIVERNLQTLLGLDFIKTEFSIGSFRIDSLAFDSEKKSFVIIEYKRDKNFSVIDQGYAYLSLMLNNKAEFILEYNESKSGALKRNDVDWSQSKVLFVSPNFTTYQKEAINFKDLPIELWEIKRFTNDTLSFGQIVNRSSKESIKTVSNSEAITTVSKEIKVYSEQDHLENIKDDFLNIYTEIKEFLLSFGEDITIYPKKKTIGFKIGGKVFCDIVMQNKGIRLFLNAKKGTLKDPEGITRDVSEVGHWGNGAYEVRFPLKNDAEIDFVFNLLRQTINKNKE
MGSDKIHHHHHHMSVRVNNLLKLPSLREATVLSGKNQLDTSVASLSFLEVSDMSLFSEKLHKTNEYHAGEILIGSFCAIRHDVVKQCETIRHLHELGEVGLILYYVGIIVPKVAEEVIQLADSLGFILIQMPKNDPTLRYNEVIYEVMKLLVNKNKMASFATDLLEKVSLLPEQNRSVEMTLKILSDFLKVNIALTTYTNEIISTINWPRSTKLPLTKLLYQSQEKVALGETTYFITSQKLPQKDGQTLKLYFIREEEQLTSFEMNQAVEVVQMALNLWGKNYDEVSEYALVQAIINDESDKMYQLAKKLMIDISSVETMWLLPIWQQGQEIHAIQQDLKDFLRYYYQTTIVQQTENYLIVLLGNYLHKQPEATISKEYLQATDYQDYLGEIILCPKVRNTTEVRVSYQTANQVAPFLKRVYPQRKVLSIAEIRTVQQMMTCLQAGEEAIQQRLAVIQPLLKESEQLMTLGTFLLDASSDFNECGERLFVHKNTVKYRISKINEALGYDMTNAAEAYEVYLAMILYRLVTNE
MGSDKIHHHHHHMSYRIVVDPKEVVKPISRHIYGHFTEHLGRCIYGGIYEEGSPLSDERGFRKDVLEAVKRIKVPNLRWPGGNFVSNYHWEDGIGPKDQRPVRFDLAWQQEETNRFGTDEFIEYCREIGAEPYISINMGTGTLDEALHWLEYCNGKGNTYYAQLRRKYGHPEPYNVKFWGIGNEMYGEWQVGHMTADEYARAAKEYTKWMKVFDPTIKAIAVGCDDPIWNLRVLQEAGDVIDFISYHFYTGSDDYYETVSTVYLLKERLIGVKKLIDMVDTARKRGVKIALDEWNVWYRVSDNKLEEPYDLKDGIFACGVLVLLQKMSDIVPLANLAQLVNALGAIHTEKDGLILTPVYKAFELIVNHSGEKLVKTHVESETYNIEGVMFINKMPFSVENAPFLDAAASISEDGKKLFIAVVNYRKEDALKVPIRVEGLGQKKATVYTLTGPDVNARNTMENPNVVDITSETITVDTEFEHTFKPFSCSVIEVELE
